{"source": "patent US20220177587A1", "about": "“METHODS AND USES OF VARIANT CD80 FUSION PROTEINS AND RELATED CONSTRUCTS” (Alpine Immune Sciences, Inc., priority 2018, published 2022)", "binders": {"B1": {"name": "CD80 IgV-Fc E35D/M47L/V68M/A71G/L85Q/D90G (Fc fusion)", "chain": "VIHVTKEVKEVATLSCGHNVSVEELAQTRIYWQKDKKMVLTMMSGDLNIWPEYKNRTIFDITNNLSIMILGLRPSDEGTYECVVQKYEKGAFKREHLAEVTLSVKAD"}, "B2": {"name": "CD80 IgV-Fc H18Y/E35D/M47V/V68M/L85M (Fc fusion)", "chain": "VIHVTKEVKEVATLSCGYNVSVEELAQTRIYWQKDKKMVLTMMSGDVNIWPEYKNRTIFDITNNLSIMILALRPSDEGTYECVVMKYEKDAFKREHLAEVTLSVKAD"}, "B3": {"name": "variant CD80 IgV-Fc (inert) H18V/A26P/E35D/M47L/V68M/A71G (Fc fusion)", "chain": "VIHVTKEVKEVATLSCGVNVSVEELPQTRIYWQKDKKMVLTMMSGDLNIWPEYKNRTIFDITNNLSIMILGLRPSDEGTYECVVLKYEKDAFKREHLAEVTLSVKAD"}, "B4": {"name": "variant CD80 IgV-Fc I30T/L70R (Fc fusion)", "chain": "VIHVTKEVKEVATLSCGHNVSVEELAQTRTYWQKEKKMVLTMMSGDMNIWPEYKNRTIFDITNNLSIVIRALRPSDEGTYECVVLKYEKDAFKREHLAEVTLSVKAD"}, "B5": {"name": "variant CD80 IgV-Fc E35G/K54E/A71D/L72P (Fc fusion)", "chain": "VIHVTKEVKEVATLSCGHNVSVEELAQTRIYWQKGKKMVLTMMSGDMNIWPEYENRTIFDITNNLSIVILDPRPSDEGTYECVVLKYEKDAFKREHLAEVTLSVKAD"}}, "key": {"CD28 (human) [1]": {"target": "CD28 (human) (UniProt P10747)"}, "human PD-L1 (human) [2]": {"target": "human PD-L1 (human) (UniProt Q9NZQ7)", "sequence (Q9NZQ7 19-290)": "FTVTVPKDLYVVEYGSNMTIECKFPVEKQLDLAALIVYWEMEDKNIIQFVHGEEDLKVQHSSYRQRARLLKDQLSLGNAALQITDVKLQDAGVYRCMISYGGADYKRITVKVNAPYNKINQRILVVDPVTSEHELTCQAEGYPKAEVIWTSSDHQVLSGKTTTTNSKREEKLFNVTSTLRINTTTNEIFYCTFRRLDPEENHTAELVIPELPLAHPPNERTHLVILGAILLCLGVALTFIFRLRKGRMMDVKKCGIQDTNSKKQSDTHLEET"}, "CD28 (human) [3]": {"target": "CD28 (human) (UniProt P10747)", "experiment": "flow cytometry, Jurkat cells (CD28)"}, "human CTLA-4 (human) [4]": {"target": "human CTLA-4 (human) (UniProt P16410)", "sequence (P16410 36-223)": "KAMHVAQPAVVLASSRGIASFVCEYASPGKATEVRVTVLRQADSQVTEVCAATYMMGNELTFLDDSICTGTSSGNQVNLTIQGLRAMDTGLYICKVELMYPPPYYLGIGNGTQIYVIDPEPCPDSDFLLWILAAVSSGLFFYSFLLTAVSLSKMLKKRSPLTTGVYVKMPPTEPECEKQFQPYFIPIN", "experiment": "flow cytometry, CHO cells stably expressing CTLA4"}, "human PD-L1 (human) [5]": {"target": "human PD-L1 (human) (UniProt Q9NZQ7)", "experiment": "flow cytometry, CHO cells stably expressing PD-L1"}, "human PD-L1 (human) [6]": {"target": "human PD-L1 (human) (UniProt Q9NZQ7)", "experiment": "flow cytometry, MFI on CHO/PD-L1 over MFI on Jurkat (CD28)"}, "CD28 (human) [7]": {"target": "CD28 (human) (UniProt P10747)", "remark": "listed apart in the source"}, "human PD-L1 (human) [8]": {"target": "human PD-L1 (human) (UniProt Q9NZQ7)", "remark": "listed apart in the source"}, "CD28 (human) [9]": {"target": "CD28 (human) (UniProt P10747)", "remark": "listed apart in the source"}, "human PD-L1 (human) [10]": {"target": "human PD-L1 (human) (UniProt Q9NZQ7)", "remark": "listed apart in the source"}, "CD28 (human) [11]": {"target": "CD28 (human) (UniProt P10747)", "remark": "listed apart in the source"}, "human PD-L1 (human) [12]": {"target": "human PD-L1 (human) (UniProt Q9NZQ7)", "remark": "listed apart in the source"}, "human CTLA-4 (human) [13]": {"target": "human CTLA-4 (human) (UniProt P16410)", "experiment": "flow cytometry, CHO/CTLA4 cells; MFI over CD80 WT IgV-Fc"}, "human PD-L1 (human) [14]": {"target": "human PD-L1 (human) (UniProt Q9NZQ7)", "experiment": "flow cytometry, CHO/PD-L1 cells; MFI over CD80 WT IgV-Fc"}, "CD28 (human) [15]": {"target": "CD28 (human) (UniProt P10747)", "experiment": "flow cytometry, Jurkat cells (CD28); MFI over CD80 WT IgV-Fc"}, "human PD-L1 (human) [16]": {"target": "human PD-L1 (human) (UniProt Q9NZQ7)", "experiment": "flow cytometry, HEK293 cells transfected with human PD-L1"}, "human PD-L1 (human) [17]": {"target": "human PD-L1 (human) (UniProt Q9NZQ7)", "experiment": "flow cytometry, HEK293 cells transfected with full-length human PD-L1, PE anti-human Fc"}}, "note": "Like-named read-outs stand apart in the source and are kept apart here."}
{"binder": "B1", "values": [{"measurement": "RLU at 5.0 nM: Fold Increase over WT CD80-IgV-Fc", "setting": "CD28 (human) [1]", "value": 2.3, "unit": "fold"}, {"measurement": "RLU at 5.0 nM: Fold Increase over WT CD80-IgV-Fc", "setting": "human PD-L1 (human) [2]", "value": 2.3, "unit": "fold"}, {"measurement": "Fold change to WT", "setting": "CD28 (human) [3]", "value": 33.9, "unit": "fold"}, {"measurement": "MFI at 33.3 nM", "setting": "CD28 (human) [3]", "value": 1400, "unit": "MFI"}, {"measurement": "Fold change to WT CD80", "setting": "human CTLA-4 (human) [4]", "value": 10.1, "unit": "fold"}, {"measurement": "MFI at 33.3 nM", "setting": "human CTLA-4 (human) [4]", "value": 10300, "unit": "MFI"}, {"measurement": "Fold change to WT", "setting": "human PD-L1 (human) [5]", "value": 202, "unit": "fold"}, {"measurement": "MFI at 33.3 nM", "setting": "human PD-L1 (human) [5]", "value": 16800, "unit": "MFI"}, {"measurement": "Ratio of PDL1:CD28", "setting": "human PD-L1 (human) [6]", "value": 12}]}
{"binder": "B2", "values": [{"measurement": "RLU at 5.0 nM: Fold Increase over WT CD80-IgV-Fc", "setting": "CD28 (human) [7]", "value": 2.5, "unit": "fold"}, {"measurement": "RLU at 5.0 nM: Fold Increase over WT CD80-IgV-Fc", "setting": "human PD-L1 (human) [8]", "value": 2.5, "unit": "fold"}, {"measurement": "RLU at 5.0 nM: Fold Increase over WT CD80-IgV-Fc", "setting": "CD28 (human) [9]", "value": 6.4, "unit": "fold"}, {"measurement": "RLU at 5.0 nM: Fold Increase over WT CD80-IgV-Fc", "setting": "human PD-L1 (human) [10]", "value": 6.4, "unit": "fold"}, {"measurement": "Fold change to WT CD80", "setting": "CD28 (human) [3]", "value": 33.7, "unit": "fold"}, {"measurement": "MFI at 33.3 nM", "setting": "CD28 (human) [3]", "value": 1390, "unit": "MFI"}, {"measurement": "Fold change to WT CD80", "setting": "human CTLA-4 (human) [4]", "value": 18.5, "unit": "fold"}, {"measurement": "MFI at 33.3 nM", "setting": "human CTLA-4 (human) [4]", "value": 19300, "unit": "MFI"}, {"measurement": "Fold change to WT CD80", "setting": "human PD-L1 (human) [5]", "value": 43.6, "unit": "fold"}, {"measurement": "MFI at 33.3 nM", "setting": "human PD-L1 (human) [5]", "value": 3090, "unit": "MFI"}, {"measurement": "Ratio of PDL1:CD28", "setting": "human PD-L1 (human) [6]", "value": 2.2}]}
{"binder": "B3", "values": [{"measurement": "IL2-luciferase reporter, fold increase in RLU over WT CD80-IgV-Fc at 5.0 nM", "setting": "CD28 (human) [11]", "value": 4.7, "unit": "fold"}, {"measurement": "IL2-luciferase reporter, fold increase in RLU over WT CD80-IgV-Fc at 5.0 nM", "setting": "human PD-L1 (human) [12]", "value": 4.7, "unit": "fold"}, {"measurement": "MFI at 33.3 nM", "setting": "CD28 (human) [3]", "value": 2450, "unit": "MFI"}, {"measurement": "MFI at 33.3 nM", "setting": "human CTLA-4 (human) [4]", "value": 16200, "unit": "MFI"}, {"measurement": "MFI at 33.3 nM", "setting": "human PD-L1 (human) [5]", "value": 52400, "unit": "MFI"}, {"measurement": "Fold change to WT CD80", "setting": "human CTLA-4 (human) [13]", "value": 11.7, "unit": "fold"}, {"measurement": "Fold change to WT CD80", "setting": "human PD-L1 (human) [14]", "value": 318, "unit": "fold"}, {"measurement": "Fold change to WT CD80", "setting": "CD28 (human) [15]", "value": 24, "unit": "fold"}]}
{"binder": "B4", "values": [{"measurement": "MFI at 22.2 nM", "setting": "human PD-L1 (human) [16]", "value": 5160}]}
{"binder": "B5", "values": [{"measurement": "MFI at 22.2 nM", "setting": "human PD-L1 (human) [17]", "value": 1580, "unit": "MFI"}]}
